# Publication PMC3025556
# T1: Nip7p (yeast) (Saccharomyces cerevisiae, UniProt Q08962 1-181)
# T1 sequence: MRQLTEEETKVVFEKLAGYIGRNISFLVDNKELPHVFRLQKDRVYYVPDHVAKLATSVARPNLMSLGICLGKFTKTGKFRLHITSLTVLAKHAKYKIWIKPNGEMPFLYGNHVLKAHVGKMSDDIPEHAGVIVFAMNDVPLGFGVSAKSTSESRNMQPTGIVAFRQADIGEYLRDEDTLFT
# T2: NIP7 (human, recombinant) (Homo sapiens, UniProt Q9Y221 1-180)
# T2 sequence: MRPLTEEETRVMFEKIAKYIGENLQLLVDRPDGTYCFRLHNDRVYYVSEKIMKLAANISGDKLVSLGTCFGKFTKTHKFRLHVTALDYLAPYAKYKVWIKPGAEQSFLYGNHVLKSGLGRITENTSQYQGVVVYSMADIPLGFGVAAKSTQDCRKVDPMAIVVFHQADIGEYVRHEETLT
# What was measured:
# Nip7p (yeast) = target: T1, Nip7p (yeast); experiment: EMSA
# [1] = target: T2, NIP7 (human, recombinant); experiment: EMSA
Binder,binding result (Nip7p (yeast)),binding result [1]
UUUUUUUUUUUUUUUUUUUU (ssRNA) [poly-U(20)],binds,–
UUAUUAUUUAUUUAUUAUUUA (ssRNA) [poly-AU(21)],–,binds
